Results: IntAct's records for PubMed 17098193

B1: Splicing factor 3A subunit 1 (Homo sapiens), Q15459 (parent)
chain: MPAGPVQAVPPPPPVPTEPKQPTEEEASSKEDSAPSKPVVGIIYPPPEVRNIVDKTASFVARNGPEFEARIRQNEINNPKFNFLNPNDPYHAYYRHKVSEFKEGKAQEPSAAIPKVMQQQQQTTQQQLPQKVQAQVIQETIVPKEPPPEFEFIADPPSISAFDLDVVKLTAQFVARNGRQFLTQLMQKEQRNYQFDFLRPQHSLFNYFTKLVEQYTKILIPPKGLFSKLKKEAENPREVLDQVCYRVEWAKFQERERKKEEEEKEKERVAYAQIDWHDFVVVETVDFQPNEQGNFPPPTTPEELGARILIQERYEKFGESEEVEMEVESDEEDDKQEKAEEPPSQLDQDTQVQDMDEGSDDEEEGQKVPPPPETPMPPPLPPTPDQVIVRKDYDPKASKPLPPAPAPDEYLVSPITGEKIPASKMQEHMRIGLLDPRWLEQRDRSIREKQSDDEVYAPGLDIESSLKQLAERRTDIFGVEETAIGKKIGEEEIQKPEEKVTWDGHSGSMARTQQAAQANITLQEQIEAIHKAKGLVPEDDTKEKIGPSKPNEIPQQPPPPSSATNIPSSAPPITSVPRPPTMPPPVRTTVVSAVPVMPRPPMASVVRLPPGSVIAPMPPIIHAPRINVVPMPPSAPPIMAPRPPPMIVPTAFVPAPPVAPVPAPAPMPPVHPPPPMEDEPTSKKLKTEDSLMPEEEFLRRNKGPVSIKVQVPNMQDKTEWKLNGQVLVFTLPLTDQVSVIKVKIHEATGMPAGKQKLQYEGIFIKDSNSLAYYNMANGAVIHLALKERGGRKK
partner: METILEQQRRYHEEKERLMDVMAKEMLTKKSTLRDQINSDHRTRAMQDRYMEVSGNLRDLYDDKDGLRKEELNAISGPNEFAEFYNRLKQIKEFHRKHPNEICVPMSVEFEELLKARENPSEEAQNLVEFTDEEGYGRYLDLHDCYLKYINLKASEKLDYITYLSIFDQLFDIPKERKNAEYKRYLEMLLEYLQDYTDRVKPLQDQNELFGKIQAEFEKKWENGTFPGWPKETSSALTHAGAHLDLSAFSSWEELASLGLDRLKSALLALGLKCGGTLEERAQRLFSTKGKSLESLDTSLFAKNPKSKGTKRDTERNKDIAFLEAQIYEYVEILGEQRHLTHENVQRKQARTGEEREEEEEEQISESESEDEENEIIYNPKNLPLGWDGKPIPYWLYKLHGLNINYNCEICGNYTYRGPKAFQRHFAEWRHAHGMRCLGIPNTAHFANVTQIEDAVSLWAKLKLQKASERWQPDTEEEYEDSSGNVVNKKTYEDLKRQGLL

Variants of: B1
Conditions: with sf3a3_human SF3A3, Q12874

Row | effect of a mutation on the interaction | Variant
1 | increasing interaction | K55L

Variants of: B1
Conditions: with sf3a3_human SF3A3, Q12874
Remark: another data set of the same source

Row | effect of a mutation on the interaction | Variant
2 | disrupting interaction | L169K
